Laboratory results reported in US11015206B2, “Compositions and methods comprising sequences having hydroxyphenylpyruvate dioxygenase (HPPD) activity” (PIONEER HI-BRED INTERNATIONAL, INC., priority 2014, dated 2021).
Residue numbers refer to the chain shown, from its start. Names and notes keep the numbering of the source.

B1: G. max wt: wild-type HPPD enzyme from soybean (protein)
chain: MPMYTPSLSAPSSNHIQPSVTLPLYITTTKLNLKQQHHTTPMPIPMCNEIQAQAQAQAQPGFKLVGFKNFVRTNPKSDRFQVNRFHHIEFWCTDATNASRRFSWGLGMPIVAKSDLSTGNQIHASYLLRSGDLSFLFSAPYSPSLSAGSSAASSASIPSFDAATCLAFAAKHGFGVRAIALEVADAEAAFSASVAKGAEPASPPVLVDDRTGFAEVRLYGDVVLRYVSYKDAAPQAPHADPSRWFLPGFEAAASSSSFPELDYGIRRLDHAVGNVPELAPAVRYLKGFSGFHEFAEFTAEDVGTSESGLNSVVLANNSETVLLPLNEPVYGTKRKSQIETYLEHNEGAGVQHLALVTHDIFTTLREMRKRSFLGGFEFMPSPPPTYYANLHNRAADVLTVDQIKQCEELGILVDRDDQGTLLQIFTKPVGDRPTIFIEIIQRIGCMVEDEEGKVYQKGACGGFGKGNFSELFKSIEEYEKTLEAKRTA
modifications: Glycine max
notes: wild-type HPPD enzyme from soybean
B2: 206Q: single substitution P206Q in SEQ ID NO:2 (protein)
chain: MGPTPTATAAGAAVAAASAAEQAAFRLVGHRNFVRFNPRSDRFQTLAFHHVELWCADAASAAGRFSFALGVPLAARSDLSTGNSAHASLLLRSGSLSLLFTAPYAHGADAATAALPSFSAAAARRFAADHGLAVRAVALRVADAEDAFRASVAAGARPAFGPVDLGRGFRLAEVELYGDVVLRYVSYPDGAAGEPFLPGFEGVASQGAADYGLSRFDHIVGNVPELAPAAAYMAGFTGFHEFAEFTTEDVGTTESGLNSMALANNSENVLLPLNEPVHGTKRRSQIQTFLDHHGGPGVQHIALASDDVLRTLREMRARSAMGGFEFLPPPLSDYYDGVRRCAGDVLTEAQINECQELGVMVDRDDQGVLLQIFTKPVGDRPTFFLEIIQRIGCMEKDEKGQEYQKGGCGGFGKGNFGQLFKSIEDYEKSLEAKQAAAAATAQGS
modifications: Zea mays variant form created by artificial means.
B3: 432K: single substitution A432K in SEQ ID NO:2 (protein)
chain: B2 chain with Q206P, A432K
modifications: Zea mays variant form created by artificial means.
B4: 214N: single substitution S214N in SEQ ID NO:2 (protein)
chain: B2 chain with Q206P, S214N
modifications: Zea mays variant form created by artificial means.
B5: 385I: single substitution L385I in SEQ ID NO:2 (protein)
chain: B2 chain with Q206P, L385I
modifications: Zea mays variant form created by artificial means.

Tested on: 4-hydroxyphenylpyruvate dioxygenase (HPPD)
Assay: HPPD activity coupled assay with HGD; substrate saturation kinetic parameters (kcat, KM)
Type: biochemical, Z. mays
Conditions: Table 2; E. coli purified proteins
Method: Wild type and shuffled variant genes were cloned into pVER7062, a modified version of pET24a(+)(Novagen), which places six histidine residues at the N-terminus of the expressed protein. Vectors were electroporated into E. coli host strain BL21(DE3). Cells were grown at 30 C in rich medium such as 2×YT containing the selection antibiotic, kanamycin. At a density of about 0.6 OD600, IPTG was added to 0.2 mM, the temperature was reduced to 16 C and growth continued for another 24 hrs. Cells were harvested by centrifugation and stored at −80 C. Cell pellets were lysed in BPER (Pierce) protein extraction reagent containing 0.2 mg/ml lysozyme, 1 mM dithiothreitol, protease inhibitor cocktail (Sigma, bacterial cocktail) and endonuclease. Insoluble cellular debris was removed by centrifugation. HPPD protein was purified from the soluble protein solution by affinity chromatography on the nickel form of nitrilotriacetic acid (Ni-NTA) resin (Qiagen). Protein concentrations were determined by the Bradford method, as supplied by Bio-Rad.
HPPD catalyzes the conversion of 4-hydroxyphenylpyruvate (HPP) to homogentisate (FIG. 17). […] However, the product of the ensuing reaction in tyrosine metabolism, maleylacetoacetate, absorbs strongly at 320 nm. Furthermore, the enzyme catalyzing that reaction is also a dioxygenase having similar mechanism and buffer requirements as HPPD, making homogentisate dioxygenase (HGD) an ideal partner in a coupled assay, as shown.
The HDG gene from Pseudomonas aeruginosa (Amaya (2004) Arch Biochem Biophys 421, 135-142) was cloned into pVER7062 and electroporated into E. coli strain BL21(DE3). The enzyme was produced by methods similar to those described for HPPD. The purified enzyme has a KM for homogentisate of 23 μM and a kcat of 100/sec, properties highly suited for instantly converting the homogentisate produced by HPPD to maleylacetoacetate.
HPPD activity was measured by placing an aliquot (e.g., 6 μl) of the substrate HPP at 50-fold the desired final concentration into the wells of a low UV-absorbing assay plate. Reactions were started by adding a mixture (e.g., 294 μl) containing 25 mM Hepes, pH 7, 2 mM ascorbate, 10 μM FeSO4, 1 to 100 μM HPP, 50 nM HGD and 5 to 240 nM HPPD. Absorbance at 320 nm was monitored continuously in a plate-reading spectrophotometer (Spectramax, Molecular Devices).
The catalytic performance of wild-type HPPD and variants generated by shuffling was assessed by determining the substrate saturation kinetic parameters. The Michaelis-Menten kinetics protocol of the Spectramax software was customized for HPP concentrations ranging from 3.33 μM to 100 μM. Reaction rates were measured as described above for each concentration of HPP. The software returns values of KM and Vmax using the Lineweaver-Burke transformation of the Michaelis-Menten equation.

B1 gave a Km of 3 µM.

For B1, the kcat was 1.67 s⁻¹.

Same assay, conditions: Table 6

B2 and B3 are within 1.5-fold of each other in Km: 2.63 µM for the first, 2.08 µM for the second.

First: B4
Second: B5
The Km of the first is 1.6-fold higher: 3.62 µM for the first, 2.29 µM for the second.

Same assay, conditions: Table 6; single substitutions in SEQ ID NO:2

B2 and B3 are within 1.5-fold of each other in kcat: 1.11 s⁻¹ for the first, 1.12 s⁻¹ for the second.

Compared with B4, B5 is 1.8-fold lower in kcat: 1.41 s⁻¹ for the first, 0.768 s⁻¹ for the second.

Tested on: 4-hydroxyphenylpyruvate dioxygenase (HPPD)
Assay: ON rate ratio: HPPD reaction rate with vs without inhibitor in the 70 to 90 second interval
Type: biochemical, Z. mays
Conditions: Table 5; tembotrione
Summary of the method: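 Time courses of HPPD reactions, 60 or 120 nM enzyme with 100 μM HPP substrate, run with and without 4 μM inhibitor (e.g. mesotrione, tembotrione). Value is the rate with inhibitor over rate without, taken over 70–90 s; higher ratio reflects slower kON.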

Compared with B2, B3 is higher in “ON ratio (parameters with tembotrione)” value: 0.74 for the first, 0.76 for the second.

Going from B4 to B5, the “ON ratio (parameters with tembotrione)” value falls from 0.76 to 0.75.

Same assay, conditions: mesotrione

B1 was tested, and the ON rate ratio was 0.20.

Tested on: 4-hydroxyphenylpyruvate dioxygenase (HPPD)
Assay: OFF rate ratio: release of inhibitor from pre-formed enzyme-inhibitor complex
Type: biochemical, Z. mays
Conditions: Table 5; tembotrione
Summary of the method: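 HPPD (7.2 μM) pre-incubated 1 h at RT with inhibitor (8 μM), then diluted into 25 mM Hepes pH 7, 2 mM ascorbate, 10 μM FeSO4, 100 μM HPP, 50 nM HGD; A320 followed 12 min. Ratio = steady-state rate with inhibitor over initial rate of inhibitor-free enzyme.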

First: B2
Second: B3
The “OFF ratio (parameters with tembotrione)” value of the first is higher: 0.21 for the first, 0.17 for the second.

Compared with B4, B5 is higher in “OFF ratio (parameters with tembotrione)” value: 0.19 for the first, 0.27 for the second.

Same assay, conditions: mesotrione

B1 was tested, and the OFF rate ratio was 0.007.

Tested on: 4-hydroxyphenylpyruvate dioxygenase (HPPD)
Assay: Insensitivity parameter (ON × OFF) and trait fitness (ON × OFF × kcat/KM or × kcat)
Type: biochemical, Z. mays
Conditions: DKN (diketonitrile form of isoxaflutole)
Summary of the method: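 Calculated, not measured directly: ON rate ratio × OFF rate ratio gives an insensitivity parameter serving as a KD surrogate.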

B2 and B3 are the same in “Insensitivity parameter, ON × OFF” value: 0.26 for the first, 0.26 for the second.

First: B4
Second: B5
The “Insensitivity parameter, ON × OFF” value of the first is lower: 0.33 for the first, 0.41 for the second.

Same assay, conditions: DKN (isoxaflutole diketonitrile)

Compared with B2, B3 is higher in “ON × OFF × kcat/km fold vs Round 7, variant 9070” value (“ON × OFF × kcat/km fold” below): 1.2 for the first, 1.6 for the second.

First: B4
Second: B5
The “ON × OFF × kcat/km fold” value of the first is higher: 1.4 for the first, 1.2 for the second.

Same assay, conditions: Mesotrione; Table 6

Going from B2 to B3, the “Insensitivity parameter, ON × OFF” value rises from 0.46 to 0.52.

Going from B4 to B5, the “Insensitivity parameter, ON × OFF” value rises from 0.48 to 0.56.

Same assay, conditions: Sulco (sulcotrione)

First: B2
Second: B3
The “ON × OFF × kcat/km fold” value of the first is lower: 1.0 for the first, 1.5 for the second.

B4 and B5 are the same in “ON × OFF × kcat/km fold” value: 1.1 for the first, 1.1 for the second.

Same assay, conditions: Sulcotrione

Compared with B2, B3 is higher in “Insensitivity parameter, ON × OFF” value: 0.53 for the first, 0.59 for the second.

First: B4
Second: B5
The “Insensitivity parameter, ON × OFF” value of the first is lower: 0.59 for the first, 0.70 for the second.

Same assay, conditions: Table 5; tembotrione

Compared with B2, B3 is lower in “ON × OFF × kcat, Value”: 5.57 for the first, 4.13 for the second.

Compared with B4, B5 is higher in “ON × OFF × kcat, Value”: 5.04 for the first, 5.55 for the second.

Same assay, conditions: Table 5; tembotrione; fold vs maize wild type HPPD

Going from B2 to B3, the “ON × OFF × kcat, Fold vs wt” value falls from 5.20 to 3.86.

Going from B4 to B5, the “ON × OFF × kcat, Fold vs wt” value rises from 4.71 to 5.18.

First: B2
Second: B3
The “ON × OFF, fold vs wt” value of the first is higher: 30.8 for the first, 25.7 for the second.

Compared with B4, B5 is higher in “ON × OFF, fold vs wt” value: 27.9 for the first, 39.5 for the second.

Same assay, conditions: Table 5; tembotrione; insensitivity parameter

Compared with B2, B3 is lower in “ON × OFF (parameters with tembotrione)” value: 0.16 for the first, 0.13 for the second.

First: B4
Second: B5
The “ON × OFF (parameters with tembotrione)” value of the first is lower: 0.14 for the first, 0.20 for the second.

Same assay, conditions: Tembotrione

First: B2
Second: B3
The “Insensitivity parameter, ON × OFF” value of the first is lower: 0.19 for the first, 0.21 for the second.

Going from B4 to B5, the “Insensitivity parameter, ON × OFF” value rises from 0.25 to 0.28.

Same assay, conditions: Topra (topramezone)

First: B2
Second: B3
The “ON × OFF × kcat/km fold” value of the first is lower: 1.1 for the first, 1.5 for the second.

B4 and B5 are the same in “ON × OFF × kcat/km fold” value: 1.2 for the first, 1.2 for the second.

Same assay, conditions: Topramezon

Going from B2 to B3, the “Insensitivity parameter, ON × OFF” value rises from 0.27 to 0.29.

Going from B4 to B5, the “Insensitivity parameter, ON × OFF” value rises from 0.32 to 0.38.

Same assay, conditions: meso (mesotrione)

Going from B2 to B3, the “ON × OFF × kcat/km fold” value rises from 1.1 to 1.6.

B4 and B5 are the same in “ON × OFF × kcat/km fold” value: 1.1 for the first, 1.1 for the second.

Same assay, conditions: mesotrione

In the case of B1, the “Fitness Fold vs Zm wt” value is reported as 0.02.

Same assay, conditions: mesotrione; Table 2

With B1 the “Insensitivity parameter, ON × OFF” value was 0.0014.

Same assay, conditions: mesotrione; vs maize wild type

With B1 the “Insensitivity ON × OFF, Fold vs wt” value was 0.023.

Same assay, conditions: tembo (tembotrione)

B2 and B3 are the same in “ON × OFF × kcat/km fold” value: 1.4 for the first, 1.4 for the second.

B4 and B5 are the same in “ON × OFF × kcat/km fold” value: 1.3 for the first, 1.3 for the second.

Tested on: 4-hydroxyphenylpyruvate dioxygenase (HPPD)
Assay: Estimate of kcat from initial rate at saturating hydroxyphenylpyruvate without inhibitor (ON rate ratio assay)
Type: biochemical, Z. mays
Conditions: Table 5; single substitutions in Round 7 variant 9070 (SEQ ID NO:2); estimate from initial rate at saturating hydroxyphenylpyruvate without inhibitor
Summary of the method: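 Reactions used 60 or 120 nM HPPD and saturating 100 μM hydroxyphenylpyruvate without inhibitor. kcat was estimated from the initial rate at the known enzyme concentration.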

B2 and B3 are within 1.5-fold of each other in kcat: 0.59 s⁻¹ for the first, 0.525 s⁻¹ for the second.

B4 and B5 are within 1.5-fold of each other in kcat: 0.59 s⁻¹ for the first, 0.458 s⁻¹ for the second.
